Values of other authors in article PMC5578174.

Columns and labels:
Ang-2 (Homo sapiens) = Ang-2 (Homo sapiens) (UniProt O15123)
PDGFRα (Homo sapiens) = PDGFRα (Homo sapiens) (UniProt P16234)
PDGFRα (Homo sapiens), sequence (P16234 24-528): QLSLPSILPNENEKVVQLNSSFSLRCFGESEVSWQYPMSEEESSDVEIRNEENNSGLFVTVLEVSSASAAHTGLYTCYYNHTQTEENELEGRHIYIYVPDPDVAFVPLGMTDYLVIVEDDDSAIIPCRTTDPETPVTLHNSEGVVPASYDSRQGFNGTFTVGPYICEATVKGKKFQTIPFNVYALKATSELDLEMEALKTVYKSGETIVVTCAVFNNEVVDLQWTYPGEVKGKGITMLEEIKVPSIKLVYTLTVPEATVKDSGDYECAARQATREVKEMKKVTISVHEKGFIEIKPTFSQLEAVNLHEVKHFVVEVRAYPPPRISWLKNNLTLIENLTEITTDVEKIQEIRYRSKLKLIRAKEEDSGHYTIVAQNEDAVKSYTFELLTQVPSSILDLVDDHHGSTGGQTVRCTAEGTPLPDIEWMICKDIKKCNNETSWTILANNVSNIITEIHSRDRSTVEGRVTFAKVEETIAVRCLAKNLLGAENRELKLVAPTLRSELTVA

Ang-2 (Homo sapiens), sequence (O15123 19-496): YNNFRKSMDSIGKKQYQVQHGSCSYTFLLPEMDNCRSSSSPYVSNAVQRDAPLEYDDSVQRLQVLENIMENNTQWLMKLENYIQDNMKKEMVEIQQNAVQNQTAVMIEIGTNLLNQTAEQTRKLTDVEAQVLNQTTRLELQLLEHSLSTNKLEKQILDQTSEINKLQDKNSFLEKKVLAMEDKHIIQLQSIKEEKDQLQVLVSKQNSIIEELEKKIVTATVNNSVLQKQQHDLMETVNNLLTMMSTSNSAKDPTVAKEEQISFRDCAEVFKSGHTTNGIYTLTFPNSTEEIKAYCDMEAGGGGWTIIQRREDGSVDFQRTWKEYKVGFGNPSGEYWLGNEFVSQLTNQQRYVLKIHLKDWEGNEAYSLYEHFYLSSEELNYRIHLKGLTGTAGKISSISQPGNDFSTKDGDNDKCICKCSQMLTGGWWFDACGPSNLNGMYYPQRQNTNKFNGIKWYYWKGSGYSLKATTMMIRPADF

Kd (Ang-2 (Homo sapiens)) [nM]	Kd (PDGFRα (Homo sapiens)) [nM]	Substance
0.024	–	Nesvacumab
–	0.04	Olaratumab
